Here are results for 46 molecules from patent US20260274955A1 (JANUX THERAPEUTICS, published 2026).

Assay [1] deals with T1, Anti-CD28 Fab (SEQ ID NOs: 202, 203).
T1 construct: biotinylated and captured on neutravidin coated plates in the phage ELISA
Description: phage ELISA, Fab on plate.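 Also: crude clonal phage supernatants added to wells pretreated with blocking buffer with or without CD28 antigen, then bound phage read out via HRP-linked anti-M13 antibody.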 A general note: In an ELISA, binding on a coated surface is turned into a signal by an enzyme label.
Description: After panning, phage infected bacteria were plated out and colonies picked into 96 well blocks. Clonal phage was then amplified and separated from bacterial cells via centrifugation.
Clonal phage were harvested as crude supernatants and screened via standard ELISAs. […] Prior to the addition of clonal phage, wells were incubated with blocking buffer and CD28 antigen or blocking buffer alone. Without washing or aspirating, clonal phage supernatants were then added to the wells and incubated for a short time. Wells were then washed followed by detection of bound phage using a horse radish conjugated anti-M13 antibody. Clonal phage of interest were then sent for sequence analysis.

Assay [2] shares this target. Nature of the assay: phage ELISA, Fab on plate, CD28 antigen as competitor.

T1 sequence (VH, as listed by the source, chain 1 of 2): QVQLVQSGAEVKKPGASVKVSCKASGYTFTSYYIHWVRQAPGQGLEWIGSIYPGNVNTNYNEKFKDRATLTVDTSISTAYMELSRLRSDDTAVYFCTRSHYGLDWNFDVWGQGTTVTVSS
T1 sequence (VL, as listed by the source, chain 2 of 2): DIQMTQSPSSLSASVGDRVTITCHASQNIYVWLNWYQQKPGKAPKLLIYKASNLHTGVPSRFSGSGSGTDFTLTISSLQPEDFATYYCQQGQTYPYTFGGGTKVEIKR

B1: Phage-665 (peptide)
peptide: YCDGHAPQYMAKCI
Consider B1, for which the “Anti-CD28 Fab (SEQ ID NOs: 202, 203) signal” value in assay [1] worked out at 1.3. The “Anti-CD28 Fab signal in the presence of CD28” value (“Anti-CD28 Fab signal” below) in assay [2] was 0.06.

B2: Phage-688 (peptide)
peptide: YCEGHTQEYMQKCL
On to B2, for which, in assay [1], the “Anti-CD28 Fab (SEQ ID NOs: 202, 203) signal” value stood at 1.24. In addition, the “Anti-CD28 Fab signal” value in assay [2] worked out at 0.07.

B3: Phage-672 (peptide)
peptide: YCDGHLEVYMDKCL
For the molecule B3, the “Anti-CD28 Fab (SEQ ID NOs: 202, 203) signal” value in assay [1] amounted to 1.28. The “Anti-CD28 Fab signal” value in assay [2] was found to be 0.07.

B4: Phage-642 (peptide)
peptide: YCDGHLPRYMAKCL
On to B4, for which, in assay [1], the “Anti-CD28 Fab (SEQ ID NOs: 202, 203) signal” value came out at 1.35. In addition, the “Anti-CD28 Fab signal” value in assay [2] was 0.1.

B5: Phage-712 (peptide)
peptide: YCDGHLPDYMAKCL
On to B5, for which the “Anti-CD28 Fab (SEQ ID NOs: 202, 203) signal” value in assay [1] came out at 1.17. The “Anti-CD28 Fab signal” value in assay [2] came out at 0.07.

B6: Phage-671 (peptide)
peptide: YCEGHLPRYMLKCL
As to B6, the “Anti-CD28 Fab (SEQ ID NOs: 202, 203) signal” value in assay [1] was determined as 1.28. Moreover, in assay [2], the “Anti-CD28 Fab signal” value is 0.3.

B7: Phage-683 (peptide)
peptide: YCEGHMSIYMQKCL
For the molecule B7, the “Anti-CD28 Fab (SEQ ID NOs: 202, 203) signal” value in assay [1] is 1.25. In addition, the “Anti-CD28 Fab signal” value in assay [2] stood at 0.07.

B8: Phage-657 (peptide)
peptide: YCAGHALEYMGKCL
Turning to B8, in assay [1], the “Anti-CD28 Fab (SEQ ID NOs: 202, 203) signal” value was found to be 1.32. Also, the “Anti-CD28 Fab signal” value in assay [2] came out at 0.06.

B9: Phage-659 (peptide)
peptide: YCEGHLPAYMWKCL
B9: the “Anti-CD28 Fab (SEQ ID NOs: 202, 203) signal” value in assay [1] worked out at 1.31. Also, the “Anti-CD28 Fab signal” value in assay [2] is 0.08.

B10: Phage-678 (peptide)
peptide: YCDGHAEEYRMKCL
B10: the “Anti-CD28 Fab (SEQ ID NOs: 202, 203) signal” value in assay [1] stood at 1.27. Besides, the “Anti-CD28 Fab signal” value in assay [2] worked out at 0.08.

B11: Phage-677 (peptide)
peptide: YCEGHQPAYMEKCL
On to B11, for which the “Anti-CD28 Fab (SEQ ID NOs: 202, 203) signal” value in assay [1] is 1.27. Besides, in assay [2], the “Anti-CD28 Fab signal” value was 0.06.

B12: Phage-651 (peptide)
peptide: YCDGHAPQYMRKCL
In the case of B12, the “Anti-CD28 Fab (SEQ ID NOs: 202, 203) signal” value in assay [1] is 1.33. Moreover, in assay [2], the “Anti-CD28 Fab signal” value worked out at 0.08.

B13: Phage-667 (peptide)
peptide: YCAGHMPIYMTKCL
Turning to B13, the “Anti-CD28 Fab (SEQ ID NOs: 202, 203) signal” value in assay [1] came to 1.3. Further, the “Anti-CD28 Fab signal” value in assay [2] stood at 0.08.

B14: Phage-668 (peptide)
peptide: YCDGHRAEYMLKCL
For B14, the “Anti-CD28 Fab (SEQ ID NOs: 202, 203) signal” value in assay [1] is 1.29. Moreover, the “Anti-CD28 Fab signal” value in assay [2] was found to be 0.08.

B15: Phage-685 (peptide)
peptide: YCAGLFEEYMSKCL
Regarding B15, the “Anti-CD28 Fab (SEQ ID NOs: 202, 203) signal” value in assay [1] worked out at 1.25. Also, in assay [2], the “Anti-CD28 Fab signal” value worked out at 0.06.

B16: Phage-654 (peptide)
peptide: YCSEHQIIFIQKCL
B16: the “Anti-CD28 Fab (SEQ ID NOs: 202, 203) signal” value in assay [1] is 1.32. Moreover, in assay [2], the “Anti-CD28 Fab signal” value was determined as 0.08.

B17: Phage-674 (peptide)
peptide: YCEGHSSQWMWKCL
Turning to B17, the “Anti-CD28 Fab (SEQ ID NOs: 202, 203) signal” value in assay [1] worked out at 1.27. The “Anti-CD28 Fab signal” value in assay [2] turned out to be 0.09.

B18: Phage-647 (peptide)
peptide: YCEGHSPEYMHKCL
With B18, the “Anti-CD28 Fab (SEQ ID NOs: 202, 203) signal” value in assay [1] came to 1.34. Also, the “Anti-CD28 Fab signal” value in assay [2] came out at 0.09.

B19: Phage-676 (peptide)
peptide: YCEGHSTEYMAKCL
B19: the “Anti-CD28 Fab (SEQ ID NOs: 202, 203) signal” value in assay [1] was found to be 1.27. In addition, the “Anti-CD28 Fab signal” value in assay [2] stood at 0.06.

B20: Phage-682 (peptide)
peptide: YCEGHSEEYMAKCL
On to B20, for which the “Anti-CD28 Fab (SEQ ID NOs: 202, 203) signal” value in assay [1] was determined as 1.26. Also, the “Anti-CD28 Fab signal” value in assay [2] is 0.07.

B21: Phage-664 (peptide)
peptide: YCEGHSLEYMMKCV
On to B21, for which the “Anti-CD28 Fab (SEQ ID NOs: 202, 203) signal” value in assay [1] came to 1.3. The “Anti-CD28 Fab signal” value in assay [2] is 0.07.

B22: Phage-673 (peptide)
peptide: YCDGHSPAYLQKCL
As to B22, the “Anti-CD28 Fab (SEQ ID NOs: 202, 203) signal” value in assay [1] was 1.28. In addition, the “Anti-CD28 Fab signal” value in assay [2] came out at 0.06.

B23: Phage-680 (peptide)
peptide: YCDGHSSVYMLKCL
Regarding B23, the “Anti-CD28 Fab (SEQ ID NOs: 202, 203) signal” value in assay [1] was determined as 1.26. For the same molecule, the “Anti-CD28 Fab signal” value in assay [2] was 0.06.

B24: Phage-670 (peptide)
peptide: YCMGHLPIYMEKCL
For B24, the “Anti-CD28 Fab (SEQ ID NOs: 202, 203) signal” value in assay [1] was 1.28. Moreover, the “Anti-CD28 Fab signal” value in assay [2] was determined as 0.05.

B25: Phage-666 (peptide)
peptide: YCQGHSVEHMAKCL
Regarding B25, the “Anti-CD28 Fab (SEQ ID NOs: 202, 203) signal” value in assay [1] stood at 1.3. Also, in assay [2], the “Anti-CD28 Fab signal” value was 0.06.

B26: Phage-675 (peptide)
peptide: YCEGHFPLYMNKCL
As for B26, the “Anti-CD28 Fab (SEQ ID NOs: 202, 203) signal” value in assay [1] is 1.27. The “Anti-CD28 Fab signal” value in assay [2] amounted to 0.08.

B27: Phage-684 (peptide)
peptide: YCEGHLQEHMAKCL
As to B27, in assay [1], the “Anti-CD28 Fab (SEQ ID NOs: 202, 203) signal” value turned out to be 1.25. Moreover, the “Anti-CD28 Fab signal” value in assay [2] is 0.05.

B28: Phage-687 (peptide)
peptide: YCDGHSEQYMAKCL
With B28, in assay [1], the “Anti-CD28 Fab (SEQ ID NOs: 202, 203) signal” value was 1.24. Also, in assay [2], the “Anti-CD28 Fab signal” value is 0.06.

B29: Phage-663 (peptide)
peptide: YCEGHSAVYMSKCL
As to B29, the “Anti-CD28 Fab (SEQ ID NOs: 202, 203) signal” value in assay [1] worked out at 1.31. Moreover, the “Anti-CD28 Fab signal” value in assay [2] came to 0.06.

B30: Phage-648 (peptide)
peptide: YCDGHSEAYIEKCL
As for B30, the “Anti-CD28 Fab (SEQ ID NOs: 202, 203) signal” value in assay [1] came out at 1.34. The “Anti-CD28 Fab signal” value in assay [2] is 0.06.

B31: Phage-661 (peptide)
peptide: YCDGHIPEYMTKCL
For the molecule B31, the “Anti-CD28 Fab (SEQ ID NOs: 202, 203) signal” value in assay [1] came out at 1.31. Also, in assay [2], the “Anti-CD28 Fab signal” value stood at 0.06.

B32: Phage-681 (peptide)
peptide: YCEGHHRIYMQKCL
For B32, in assay [1], the “Anti-CD28 Fab (SEQ ID NOs: 202, 203) signal” value turned out to be 1.26. Moreover, the “Anti-CD28 Fab signal” value in assay [2] stood at 0.07.

B33: Phage-658 (peptide)
peptide: YCEGHLPEYMIKCL
For B33, the “Anti-CD28 Fab (SEQ ID NOs: 202, 203) signal” value in assay [1] stood at 1.32. Besides, the “Anti-CD28 Fab signal” value in assay [2] amounted to 0.06.

B34: Phage-644 (peptide)
peptide: YCDGHLLQYMHKCL
Turning to B34, the “Anti-CD28 Fab (SEQ ID NOs: 202, 203) signal” value in assay [1] is 1.35. The “Anti-CD28 Fab signal” value in assay [2] came out at 0.07.

B35: Phage-679 (peptide)
peptide: YCDGHLPVYMTKCL
Consider B35, for which the “Anti-CD28 Fab (SEQ ID NOs: 202, 203) signal” value in assay [1] stood at 1.27. The “Anti-CD28 Fab signal” value in assay [2] stood at 0.07.

B36: Phage-669 (peptide)
peptide: YCEGHLVQYMQKCL
Take B36: the “Anti-CD28 Fab (SEQ ID NOs: 202, 203) signal” value in assay [1] was found to be 1.28. In assay [2], the “Anti-CD28 Fab signal” value stood at 0.06.

B37: Phage-749 (peptide)
peptide: YCEGHDVQYMQKCL
Regarding B37, in assay [1], the “Anti-CD28 Fab (SEQ ID NOs: 202, 203) signal” value was found to be 1.06. For the same molecule, in assay [2], the “Anti-CD28 Fab signal” value came out at 0.08.

B38: Phage-690 (peptide)
peptide: YCEGHLAEYMNKCL
Turning to B38, in assay [1], the “Anti-CD28 Fab (SEQ ID NOs: 202, 203) signal” value stood at 1.24. For the same molecule, the “Anti-CD28 Fab signal” value in assay [2] came to 0.07.

B39: Phage-652 (peptide)
peptide: YCDGHLPLYMQKCF
Turning to B39, the “Anti-CD28 Fab (SEQ ID NOs: 202, 203) signal” value in assay [1] worked out at 1.33. In addition, the “Anti-CD28 Fab signal” value in assay [2] was 0.1.

B40: Phage-660 (peptide)
peptide: YCEGHLPMYMQKCL
Regarding B40, the “Anti-CD28 Fab (SEQ ID NOs: 202, 203) signal” value in assay [1] stood at 1.31. Moreover, the “Anti-CD28 Fab signal” value in assay [2] worked out at 0.08.

B41: Phage-653 (peptide)
peptide: YCAGHLPMYMQKCL
For the molecule B41, the “Anti-CD28 Fab (SEQ ID NOs: 202, 203) signal” value in assay [1] is 1.33. Also, the “Anti-CD28 Fab signal” value in assay [2] turned out to be 0.08.

B42: Phage-686 (peptide)
peptide: YCEGHLPMYMTKCL
In the case of B42, the “Anti-CD28 Fab (SEQ ID NOs: 202, 203) signal” value in assay [1] is 1.25. For the same molecule, the “Anti-CD28 Fab signal” value in assay [2] turned out to be 0.06.

B43: Phage-691 (peptide)
peptide: YCDGHVEEYMTKCL
As for B43, in assay [1], the “Anti-CD28 Fab (SEQ ID NOs: 202, 203) signal” value turned out to be 1.24. In addition, the “Anti-CD28 Fab signal” value in assay [2] was found to be 0.07.

B44: Phage-650 (peptide)
peptide: YCAGHASEYMAKCL
On to B44, for which the “Anti-CD28 Fab (SEQ ID NOs: 202, 203) signal” value in assay [1] came to 1.33. For the same molecule, the “Anti-CD28 Fab signal” value in assay [2] amounted to 0.08.

B45: Phage-655 (peptide)
peptide: YCEGHLEIYLAKCL
With B45, the “Anti-CD28 Fab (SEQ ID NOs: 202, 203) signal” value in assay [1] came to 1.32. Further, the “Anti-CD28 Fab signal” value in assay [2] amounted to 0.07.

B46: Phage-646 (peptide)
peptide: YCDGHSKEYMAKCL
For the molecule B46, the “Anti-CD28 Fab (SEQ ID NOs: 202, 203) signal” value in assay [1] came out at 1.34. For the same molecule, the “Anti-CD28 Fab signal” value in assay [2] came out at 0.06.
